According to the RNAGym collection of RNA variant scans (doi:10.7554/elife.80360):

B1: Hammerhead Ribozyme (parent)
chain: ACCGGAUGUGCUUUCCGGUCUGAUGAGUCCGUGAGGACGAAACAG

Variants of: B1
Assay: self-cleavage, relative activity (ratio to wild type); higher = more cleavage; co-transcriptional

Point of comparison: U19A A34G, self-cleavage 0.36. Against it:
- G10U A40C — higher, 0.548
- C11A A26G — lower, 0.28
- G25A A41U — lower, 0.275
- C16U G39A — lower, 0.327
- C16U G39C — higher, 0.391
- U24C G35A — higher, 0.702
- C11G U19C — higher, 0.532
- G17U G45C — higher, 0.513
- A6C G31U — higher, 0.884
- G31C G35U — higher, 0.698
- G4A C11U — higher, 0.389
- G8C G27C — higher, 0.63
- G18C U24A — higher, 0.617
- G10A U19A — lower, 0.347
- G22U A42G — lower, 0.285
- C29U G36U — higher, 0.483
- A34U C38U — higher, 0.799
- G25C A37U — lower, 0.286
- U13A G31A — higher, 1.46
- G4U G25C — lower, 0.339
- G5A G17C — higher, 0.434
- G5A G17U — higher, 0.452
- U28G A34C — higher, 0.411
- C15A A23G — higher, 0.428
- A1G G31U — higher, 1.88
- A42U C43A — lower, 0.344
- G5U G27C — higher, 0.491
- A6C U14G — higher, 0.508
- C2U U24A — higher, 1.05
- A23U U28A — higher, 0.375
- A6C G27C — higher, 0.478
- A1U C29G — higher, 0.448
- A40G G45U — higher, 0.421
- C2U C3U — higher, 0.588
- C2G C16A — lower, 0.335
- C3U G22C — lower, 0.341
- A34U G39A — lower, 0.288
- U14C G36C — lower, 0.31
- C15A A42U — lower, 0.282
- C29U G39C — lower, 0.326
- C30A A34C — higher, 0.798
- A1G C43A — higher, 0.444
- C2G U12C — lower, 0.342
- G10U G45A — higher, 0.694
- A1C G17C — higher, 0.391
- U21C G35C — higher, 0.681
- C3A G10A — higher, 0.897
- A26C C38U — higher, 0.503
- U12G U28C — higher, 1.02
- G10U G25C — higher, 0.375
- A1U A34U — higher, 0.452
- C16A G22C — lower, 0.294
- G10U C11U — higher, 1.14
- A26G G27U — lower, 0.322
- U13A A40C — higher, 0.711
- C20A A26G — lower, 0.344
- C2G G17A — higher, 0.377
- A6G U28A — higher, 0.468
- A23C A44G — higher, 0.896
- G17U A44G — higher, 0.877
- G8A U32A — higher, 1.14
- U21G G36C — higher, 0.365
- C3G G27C — lower, 0.284
- G4A U13C — higher, 0.824
- G18U U24C — higher, 0.642
- C11U A40C — higher, 0.438
- C15G G36U — higher, 0.374
- A1U C30U — higher, 0.897
- U28A A34U — higher, 0.678
- C11U C16G — higher, 0.684
- A6U U28C — higher, 0.638
- G10C G22U — lower, 0.335
- G10C G22C — lower, 0.28
- C15U G27U — higher, 0.579
- G17A U32C — higher, 0.812
- G36C A41U — lower, 0.294
- G22U C43G — lower, 0.348
- A6G U24G — higher, 0.777
- G18U G45C — higher, 0.476
- U7G A42C — lower, 0.271
- C2U G35C — higher, 0.647
- A42G C43G — lower, 0.308
- C30U U32A — higher, 0.892
- G5A A42U — lower, 0.353
- G8A U28C — higher, 1.36
- G25C G39C — lower, 0.242
- C15G G18A — higher, 0.378
- G18C A41G — lower, 0.313
- G4U U32A — higher, 0.507
- A6C G10C — higher, 0.515
- G39C C43A — lower, 0.336
- G36A A40G — lower, 0.289
- U7A U21G — lower, 0.319
- G5C A37C — lower, 0.259
- A1C G25C — lower, 0.313
- G8U C38U — higher, 0.893
- G10C G27C — higher, 0.994
- G10C G45A — higher, 0.996
- C2A U14C — higher, 0.397
- C2A U9C — higher, 0.695
- U9C U19A — lower, 0.286
- U7G A34G — higher, 1.67
- C20G A41G — lower, 0.332
- U19G G39C — lower, 0.297
- C11U G27C — higher, 0.58
- A1G A42U — higher, 0.425
- C30A G31C — higher, 0.872
- G31A C38G — higher, 0.592
- G36U A40U — lower, 0.281
- U12C G17U — higher, 0.612
- C15A A41U — lower, 0.287
- G33C G39A — lower, 0.332
- G33C G39C — higher, 0.375
- A26G C38A — lower, 0.325
- G18A G25C — lower, 0.332
- U9C G22U — lower, 0.307
- C29G G35A — higher, 0.637
- U24A A37U — higher, 0.771
- G5U A34U — higher, 0.83
- G22A G36C — lower, 0.309
- G8A G22U — higher, 0.384
- A6C G25A — lower, 0.286
- U9G U32C — higher, 1.21
- G18C G25C — lower, 0.347
- A6U U21C — higher, 0.616
- G25U C30G — lower, 0.291
- U14C G25C — lower, 0.228
- G31A A41G — lower, 0.317
- U19A C43A — lower, 0.279
- U21C C43U — higher, 0.487
- G22A A44G — higher, 0.672
- C11U G36C — higher, 0.499
- A1U G25A — lower, 0.32
- U9A C30G — higher, 0.774
- A40C G45A — higher, 0.431
- G4U C29G — lower, 0.358
- U19A A40C — lower, 0.339
- C20U G22C — higher, 0.377
- U21C G39U — lower, 0.34
- C3A U13C — higher, 0.963
- U7A U19C — higher, 0.402
- G4U U12A — higher, 0.547
- G4U U12G — higher, 0.564
- U12G — higher, 0.976
- A6C U7G — higher, 0.392
- G5A U32A — higher, 1.32
- C2A G17A — higher, 0.364
- A1C G5C — lower, 0.286
- C2G G18U — higher, 0.669
- U19G U24C — lower, 0.255
- U14G C20A — higher, 0.481
- U32A A44G — higher, 1.41
- G5C A41U — lower, 0.326
- G33C G45U — higher, 0.874
- G4C G31U — higher, 0.748
- G35U A42U — lower, 0.344
- C11G G45A — higher, 0.626
- G8A C38U — higher, 0.926
- G5U U32G — higher, 0.367
- U32G A34G — higher, 0.65
- U13C A26C — higher, 0.782
- C16U A26C — higher, 0.467
- C2G A44C — lower, 0.322
- A1C C3U — lower, 0.345
- G4U A26C — lower, 0.35
- G10A G17C — higher, 0.61
